# From publication PMC5028935, “De novo synthesis of fatty acids is regulated by FapR protein in Exiguobacterium antarcticum B7, a psychrotrophic bacterium isolated from Antarctica”
# T1: FapR (Exiguobacterium antarcticum B7, UniProt A0ABT6QZ49 1-189)
# T1 sequence: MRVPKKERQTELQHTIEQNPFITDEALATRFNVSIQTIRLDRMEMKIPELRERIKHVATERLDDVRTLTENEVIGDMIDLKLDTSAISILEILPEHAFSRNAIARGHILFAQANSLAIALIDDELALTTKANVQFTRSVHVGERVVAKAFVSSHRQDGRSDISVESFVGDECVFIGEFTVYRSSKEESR
# B1: fapR-plsX-fabD-fabG promoter, synthesized up to the palindrome (dsDNA)
# DNA 1: TACTTGAAAGTGAACAACAAGGGATATATACTACTATTAGTACCAGGTAATAA
# DNA 2: TTATTACCTGGTACTAATAGTAGTATATATCCCTTGTTGTTCACTTTCAAGTA
# Target: T1, FapR
# Assay: EMSA; 2, 2.8, 3.8 and 4.5 uM protein; no shift; 10 mM Tris-HCl (pH not given), 0.2 mM DTT, 0.2 mM EDTA, 0.25 mM KCl (so in the source), 1 h on ice; 7.5% native PAGE, SYBR Safe stain
# Conditions: protein: recombinant; (pET-46 Ek/LIC vector adds a His tag); chain copies: 2
binder,measurement,value
B1,binding result,no binding
